Where “and” joins values, the source holds several entries; their conditions need not be identical. Identical values can stand only once. Entries after “also recorded” stand apart in the source; their conditions may differ.
B1: (OVA)-3-1: ovalbumin modified via SMCC with nonasaccharide 3-1, average of three saccharides per OVA (conjugate)
chain: GSIGAASMEFCFDVFKELKVHHANENIFYCPIAIMSALAMVYLGAKDSTRTQINKVVRFDKLPGFGDSIEAQCGTSVNVHSSLRDILNQITKPNDVYSFSLASRLYAEERYPILPEYLQCVKELYRGGLEPINFQTAADQARELINSWVESQTNGIIRNVLQPSSVDSQTAMVLVNAIVFKGLWEKAFKDEDTQAMPFRVTEQESKPVQMMYQIGLFRVASMASEKMKILELPFASGTMSMLVLLPDEVSGLEQLESIINFEKLTEWTSSNVMEERKIKVYLPRMKMEEKYNLTSVLMAMGITDVFSSSANLSGISSAESLKISQAVHAAHAEINEAGREVVGSAEAGVDAASVSEEFRADHPFLFCIKHIATNAVLFFGRCVSP
B2: ovalbumin (protein, UniProt P01012 2-386, looked up)
Ovalbumin: B1 chain
notes: model antigen, unmodified

How the values were obtained:
[1] = test system: CD11c+ dendritic cells / OTII T cells; experiment: Antigen presentation assay, purified CD11c+ dendritic cells and purified OTII T cells; format: cell-based, mouse
Protocol: FIGS. 4A, 4B, 4C and 4D are graphs showing that CD11c^+ dendritic cells are the main antigen presenting cells presenting 3-1-targeted antigen. […] 1.5×10^4 Splenic CD11c^+ dendritic cells purified from C57BL/6 mice and 3.0×10^4 purified OTII T cells were incubated with OVA (starting concentration 300 μg mL^−1) or (OVA)-3-1 (starting concentration 25 μg mL^−1) in graded doses for eight-four hours with [^3H]thymidine (1 μCi) added for the last twelve hours. […] Purified CD11c^+ dendritic cells and OTII T cells were incubated with (OVA)-3-1 (25 μg mL^−1)±each potential inhibitor (100 μg mL^−1). T cell proliferation was determined as for FIG. 4A. […] CD11c^+ dendritic cells and OTII T cells were incubated with OVA or (OVA)-3-1±lipopolysaccharide ([…]). Also included are all ‘non-dendritic cells’ (macrophages and B cells) obtained during the purification of the dendritic cells. T cell proliferation was determined as described in FIG. 4A. […] Supernatants from cells described in FIG. 4C were collected at forty-eight and seventy-two hours and measured for IFN-γ by ELISA; the values presented are from the seventy-two hour time point. All measurements here were performed in triplicate.
To confirm that the increased T cell proliferation observed with (OVA)-3-1 was due to the selective uptake of this conjugate by dendritic cells and not B cells or macrophages, purified CD11c^+ dendritic cells were prepared from wild-type C57BL/6 mice and the OVA-specific T cells from transgenic OTII mice (see Materials & Methods). The in vitro antigen presentation assays described above were then repeated. […] By comparison, >50-fold more unmodified OVA was required to obtain similar levels of T cell proliferation. When B cells and macrophages were used as antigen-presenting cells in place of purified dendritic cells, the resulting T cell responses were negligible (FIG. 4C), providing strong confirmation that CD11c^+ dendritic cells are the main antigen-presenting cells mediating uptake and presentation of (OVA)-3-1 to OTII T cells.
Pooled inguinal lymph nodes were dissociated in 10% Fetal Bovine Serum RPMI (supplemented with 2 mM L-glutamine) and either mechanically dissociated between two glass slides or, to improve the overall cell yield, incubated in the presence of collagenase (Boehringer) and EDTA for 25 minutes at 37° C./5% CO2 to dissociate DC-T cell clusters. For antigen presentation assays with whole splenocytes, isolated spleens were injected with collagenase/EDTA, gently teased apart and incubated as described above. Splenocytes were cultured in 96-well round-bottom plates at a density of 3×10^5 cells/0.2 mL. In antigen presentation assays utilizing purified dendritic cells and T cells, dendritic cells were isolated from the spleens of C57BL/6 mice following collagenase/EDTA treatment by labeling the dendritic cells with commercially available magnetic microbeads linked to an anti-CD11c^+ antibody (Miltenyi Biotec, Bergisch Gladbach, Germany) (according to the Miltenyi Biotec protocol) and separating labeled Dendritic cells from non-dendritic cells by application of a magnetic field. Similarly, purified […] T cells were obtained from spleens of OTII transgenic mice using magnetic beads Dynal (Oslo, Norway). Purified dendritic cells and T cells were seeded onto 96-well plates round-bottom Plates at a 1:2 DC:T cell ratio unless stated otherwise in the Figures.

[2] = test system: OTII T cells; experiment: Adoptive transfer of CFSE-labeled OTII cells, immunization with CFA or mBSA, cell number and CFSE dilution; format: in vivo, mouse; conditions: for T cells that had undergone cell division: antigen 50 ng ± mBSA 50 μg subcutaneous, CFSE
Protocol: FIGS. 7A and 7B are a series of dot plots showing that inflammatory stimuli dampen the effects of DC targeting by (OVA)-3-1. FIG. 7A includes two dot plots showing the 5-(6)-carboxyfluorescein diacetate succinimidyl ester (CFSE), a cell-permeable dye, intensity present in a population of cells. 2×10^7 CFSE-labeled OTII splenocytes were adoptively transferred to B6.Ly5.2/Cr recipients and the mice were immunized subcutaneously with OVA (200 ng) or (OVA)-3-1 (200 ng) emulsified in Complete Freund's Adjuvant. At seventy-two hours post immunization the draining inguinal lymph nodes were isolated and the expansion of CD45.2^+Vα2^+ was evaluated for CFSE dilution by flow cytometry. 4×10^5 total counts were collected. The plots display the CFSE intensity associated with the gated population of Vα2^+CD45.2^+ donor cells. The numbers indicate the percentage of CFSE high (undivided; R3 gate) and CFSE low (divided; R4 gate) OTII T cells. FIG. 7B is a series of five dot plots showing the enhancement in T cell proliferation promoted by neoglycoprotein mBSA. CFSE-labeled OTII splenocytes were adoptively transferred as in (A) and mice were immunized subcutaneously with mBSA (50 μg); OVA (50 ng); (OVA)-3-1 (50 ng); OVA (50 ng)+mBSA (50 μg) or (OVA)-3-1 (50 ng)+mBSA (50 μg). At 3 days the mice were sacrificed and isolated cells were analyzed as described in (A). Both FIGS. 7A and 7B are results from one of two separate experiments.
These cytokines aid in the recruitment and activation of monocytes and dendritic cells at the site of administration, thereby promoting a heightened immune response. […] Prior to transferring the CD45.2 OTII T cells to the B6.Ly5.2/Cr recipients, the cells were stained with 5-(6)-carboxyfluorescein diacetate succinimidyl ester (CFSE), a cell-permeable dye that freely crosses the cell membrane; once inside the cell, however, cellular esterases hydrolyze the CFSE's ester functional groups to generate a negatively charged molecule that cannot cross back across the cell membrane. This dye is used to monitor cell division by flow cytometry as each successive cell division leads to a dilution of CFSE among the daughter cells.
To administer pro-inflammatory stimuli at the same time as soluble antigen, OVA and (OVA)-3-1 were emulsified in Complete Freund's Adjuvant (CFA) prior to immunization. CFA is an oil-based mixture of mycobacterial cell wall components that is known to induce strong TH1 T cell responses^2. Seventy-two hours after immunization, cells from the draining lymph nodes were isolated and analyzed by flow cytometry for cell number and divisions (FIG. 7A). […] In fact, the enhancement previously observed relative to soluble OVA (FIG. 6B) was largely diminished. […] Without being tied to one particular theory, one potential reason for this observation could be that dendritic cells targeted with (OVA)-3-1 produced more peptide-MHC class II complexes than those targeted by OVA as receptor-mediated endocytosis delivered more antigen to the cell before full maturation was reached^10.
Since most lectins have weak affinities for monosaccharides, these experiments were repeated with BSA that was modified with approximately 25 mannose residues per protein molecule (mBSA). […] Mice that had received CFSE-labeled OTH T cells were immunized with mBSA, OVA, (OVA)-3-1, OVA plus mBSA, or (OVA)-3-1 plus mBSA and their T cell responses were analyzed at seventy-two hours (FIG. 7B). […]

[3] = purified CD11c+ dendritic cells and OTII T cells

Molecule	inhibitory effect on (OVA)-3-1 presentation by dendritic cells ([1]; (OVA)-3-1 25 μg mL^−1, inhibitor 100 μg mL^−1)	OTII T cell proliferation after immunization with mBSA alone ([2]; mBSA 50 μg subcutaneous, 72 h)	capture and presentation by purified CD11c+ dendritic cells to OTII T cells compared to soluble OVA ([1]; parallel titration series)	decrease in presentation to OTII T cells as a result of TLR-mediated dendritic cell maturation ([1]; plus lipopolysaccharide (LPS))	presentation to T cells upon TLR-4 stimulation ([1]; plus lipopolysaccharide (LPS))	low concentration at which capture and presentation was still highly efficient [1, 3]	increase in OTII T cell number compared to OVA ([2]; 50 ng subcutaneous, 72 h)	T cells that had undergone cell division ([2]; 72 h)	enhancement of T cell activation / proliferation relative to OVA in saline ([2]; in vivo immunization)	excess of unmodified OVA required to obtain levels of T cell proliferation similar to (OVA)-3-1 [1, 3]
mBSA: BSA modified with approximately 25 mannose residues per protein molecule [reference compound]	Neither mBSA nor Lewis^x-BSA were inhibitory	did not proliferate	–	–	–	–	–	–	–	–
B1	–	–	highly efficient; also recorded: efficiently present	60%	remained better than targeting by unmodified OVA; also recorded: significantly decreased	16 nM	2 fold	58% and 55%	2 fold	–
B2	–	–	–	30%	–	–	–	33%	–	> 50 fold

Source: patent US8273357B2, “Antigen-carbohydrate conjugates” (Massachusetts Institute of Technology, priority 2004, dated 2012)
